Experimental findings from US20170267750A1, “Method of Treating Ovarian and Renal Cancer Using Antibodies Against T Cell Immunoglobulin Domain and Mucin Domain 1 (TIM-1) Antigen” (Celldex Therapeutics, Inc., priority 2005, published 2017) are described below.

The assay addresses TIM-1 (T cell, immunoglobulin domain and mucin domain 1), cell membrane-bound (human) (UniProt Q96D42). Kind of assay: FACS on polarized human CD4+ Th2 cells, 10 ug/mL mAb, goat anti-human PE (control antibody background).

Sequence of TIM-1 (T cell, immunoglobulin domain and mucin domain 1), cell membrane-bound (human) (Q96D42 21-364): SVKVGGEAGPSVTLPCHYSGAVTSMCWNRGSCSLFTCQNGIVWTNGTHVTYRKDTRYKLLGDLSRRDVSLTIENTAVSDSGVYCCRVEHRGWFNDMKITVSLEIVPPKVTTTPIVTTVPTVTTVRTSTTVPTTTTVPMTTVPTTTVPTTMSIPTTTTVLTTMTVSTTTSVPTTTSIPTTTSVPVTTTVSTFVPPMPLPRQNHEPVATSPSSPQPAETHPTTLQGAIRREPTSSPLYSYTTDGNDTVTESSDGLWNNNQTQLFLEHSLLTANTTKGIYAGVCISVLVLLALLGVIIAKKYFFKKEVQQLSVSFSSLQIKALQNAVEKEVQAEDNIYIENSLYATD

“isotype matched control mAb PK16.3 (antibody)” gave a Geometric mean of fluorescence intensity of 8.4.
